Sequences and labels used below:
T1: EsCas13d, nuclease-dead (Eubacterium siraeum, UniProt B0MS50, R295A;H300A;R849A;H854A)
T1 sequence: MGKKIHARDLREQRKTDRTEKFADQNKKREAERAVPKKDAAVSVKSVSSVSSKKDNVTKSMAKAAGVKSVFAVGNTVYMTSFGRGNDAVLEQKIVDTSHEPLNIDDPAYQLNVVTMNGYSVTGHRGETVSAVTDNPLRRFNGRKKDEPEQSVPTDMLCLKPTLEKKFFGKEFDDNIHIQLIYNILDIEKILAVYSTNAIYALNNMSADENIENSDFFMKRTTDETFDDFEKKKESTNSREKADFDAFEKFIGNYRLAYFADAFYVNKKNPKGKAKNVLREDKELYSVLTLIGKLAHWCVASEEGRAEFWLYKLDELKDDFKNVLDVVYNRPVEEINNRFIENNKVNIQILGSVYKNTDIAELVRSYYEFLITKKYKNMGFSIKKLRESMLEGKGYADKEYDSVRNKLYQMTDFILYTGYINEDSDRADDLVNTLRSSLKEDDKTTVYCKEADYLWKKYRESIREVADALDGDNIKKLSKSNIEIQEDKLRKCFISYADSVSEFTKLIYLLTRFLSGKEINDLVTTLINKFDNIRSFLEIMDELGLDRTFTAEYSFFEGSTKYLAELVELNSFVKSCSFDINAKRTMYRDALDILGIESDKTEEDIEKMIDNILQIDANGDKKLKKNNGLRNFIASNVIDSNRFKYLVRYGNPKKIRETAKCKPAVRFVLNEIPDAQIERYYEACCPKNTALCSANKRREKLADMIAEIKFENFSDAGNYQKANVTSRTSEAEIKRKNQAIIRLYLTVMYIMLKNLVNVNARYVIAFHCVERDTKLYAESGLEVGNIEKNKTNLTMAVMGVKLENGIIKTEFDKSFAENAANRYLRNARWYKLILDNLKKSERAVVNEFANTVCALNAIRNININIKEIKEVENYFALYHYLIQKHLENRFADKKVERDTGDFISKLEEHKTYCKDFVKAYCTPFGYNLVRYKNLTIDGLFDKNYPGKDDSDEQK

B1: target 2 MT 5'PFS CGC 3'PFS CGU (mixed)
RNA 1: CACCCGUGCAAAAUUGCAGGGGUCUAAAACCUUCUCCAAAUUGUUUCAUCCU
RNA 2: GGGAAUGGAUCCACAUCUACGAAUUCCGCAGGAUGAAACAAUUUGGAGAAGCGUAGAUCGGAAGAGCACACGU
B2: target 2 MT 5'PFS UAA 3'PFS CCA (mixed)
RNA 1: CACCCGUGCAAAAUUGCAGGGGUCUAAAACCUUCUCCAAAUUGUUUCAUCCU
RNA 2: GGGAAUGGAUCCACAUCUACGAAUUCUAAAGGAUGAAACAAUUUGGAGAAGCCAAGAUCGGAAGAGCACACGU
B3: target 2 MT 5'PFS GAA 3'PFS AAA (mixed)
RNA 1: CACCCGUGCAAAAUUGCAGGGGUCUAAAACCUUCUCCAAAUUGUUUCAUCCU
RNA 2: GGGAAUGGAUCCACAUCUACGAAUUCGAAAGGAUGAAACAAUUUGGAGAAGAAAAGAUCGGAAGAGCACACGU
B4: target 2 MT 5'PFS CGC 3'PFS CGG (mixed)
RNA 1: CACCCGUGCAAAAUUGCAGGGGUCUAAAACCUUCUCCAAAUUGUUUCAUCCU
RNA 2: GGGAAUGGAUCCACAUCUACGAAUUCCGCAGGAUGAAACAAUUUGGAGAAGCGGAGAUCGGAAGAGCACACGU
B5: target 2 MT 5'PFS CAU 3'PFS CUA (mixed)
RNA 1: CACCCGUGCAAAAUUGCAGGGGUCUAAAACCUUCUCCAAAUUGUUUCAUCCU
RNA 2: GGGAAUGGAUCCACAUCUACGAAUUCCAUAGGAUGAAACAAUUUGGAGAAGCUAAGAUCGGAAGAGCACACGU
B6: target 2 MT 5'PFS GCG 3'PFS ACG (mixed)
RNA 1: CACCCGUGCAAAAUUGCAGGGGUCUAAAACCUUCUCCAAAUUGUUUCAUCCU
RNA 2: GGGAAUGGAUCCACAUCUACGAAUUCGCGAGGAUGAAACAAUUUGGAGAAGACGAGAUCGGAAGAGCACACGU
B7: target 2 MT 5'PFS CAU 3'PFS CUU (mixed)
RNA 1: CACCCGUGCAAAAUUGCAGGGGUCUAAAACCUUCUCCAAAUUGUUUCAUCCU
RNA 2: GGGAAUGGAUCCACAUCUACGAAUUCCAUAGGAUGAAACAAUUUGGAGAAGCUUAGAUCGGAAGAGCACACGU
B8: target 2 MT 5'PFS AUU 3'PFS CAU (mixed)
RNA 1: CACCCGUGCAAAAUUGCAGGGGUCUAAAACCUUCUCCAAAUUGUUUCAUCCU
RNA 2: GGGAAUGGAUCCACAUCUACGAAUUCAUUAGGAUGAAACAAUUUGGAGAAGCAUAGAUCGGAAGAGCACACGU
B9: target 2 MT 5'PFS UAA 3'PFS CCG (mixed)
RNA 1: CACCCGUGCAAAAUUGCAGGGGUCUAAAACCUUCUCCAAAUUGUUUCAUCCU
RNA 2: GGGAAUGGAUCCACAUCUACGAAUUCUAAAGGAUGAAACAAUUUGGAGAAGCCGAGAUCGGAAGAGCACACGU
B10: target 2 MT 5'PFS GCG 3'PFS UAA (mixed)
RNA 1: CACCCGUGCAAAAUUGCAGGGGUCUAAAACCUUCUCCAAAUUGUUUCAUCCU
RNA 2: GGGAAUGGAUCCACAUCUACGAAUUCGCGAGGAUGAAACAAUUUGGAGAAGUAAAGAUCGGAAGAGCACACGU
B11: target 2 MT 5'PFS ACC 3'PFS CUU (mixed)
RNA 1: CACCCGUGCAAAAUUGCAGGGGUCUAAAACCUUCUCCAAAUUGUUUCAUCCU
RNA 2: GGGAAUGGAUCCACAUCUACGAAUUCACCAGGAUGAAACAAUUUGGAGAAGCUUAGAUCGGAAGAGCACACGU
B12: target 2 MT 5'PFS GCG 3'PFS UAC (mixed)
RNA 1: CACCCGUGCAAAAUUGCAGGGGUCUAAAACCUUCUCCAAAUUGUUUCAUCCU
RNA 2: GGGAAUGGAUCCACAUCUACGAAUUCGCGAGGAUGAAACAAUUUGGAGAAGUACAGAUCGGAAGAGCACACGU
B13: target 2 MT 5'PFS ACC 3'PFS CUG (mixed)
RNA 1: CACCCGUGCAAAAUUGCAGGGGUCUAAAACCUUCUCCAAAUUGUUUCAUCCU
RNA 2: GGGAAUGGAUCCACAUCUACGAAUUCACCAGGAUGAAACAAUUUGGAGAAGCUGAGAUCGGAAGAGCACACGU
B14: target 2 MT 5'PFS GCG 3'PFS ACC (mixed)
RNA 1: CACCCGUGCAAAAUUGCAGGGGUCUAAAACCUUCUCCAAAUUGUUUCAUCCU
RNA 2: GGGAAUGGAUCCACAUCUACGAAUUCGCGAGGAUGAAACAAUUUGGAGAAGACCAGAUCGGAAGAGCACACGU
B15: target 2 MT 5'PFS ACC 3'PFS CUC (mixed)
RNA 1: CACCCGUGCAAAAUUGCAGGGGUCUAAAACCUUCUCCAAAUUGUUUCAUCCU
RNA 2: GGGAAUGGAUCCACAUCUACGAAUUCACCAGGAUGAAACAAUUUGGAGAAGCUCAGAUCGGAAGAGCACACGU
B16: target 2 MT 5'PFS GCG 3'PFS ACU (mixed)
RNA 1: CACCCGUGCAAAAUUGCAGGGGUCUAAAACCUUCUCCAAAUUGUUUCAUCCU
RNA 2: GGGAAUGGAUCCACAUCUACGAAUUCGCGAGGAUGAAACAAUUUGGAGAAGACUAGAUCGGAAGAGCACACGU
B17: target 2 MT 5'PFS GCG 3'PFS ACA (mixed)
RNA 1: CACCCGUGCAAAAUUGCAGGGGUCUAAAACCUUCUCCAAAUUGUUUCAUCCU
RNA 2: GGGAAUGGAUCCACAUCUACGAAUUCGCGAGGAUGAAACAAUUUGGAGAAGACAAGAUCGGAAGAGCACACGU
B18: target 2 MT 5'PFS GAA 3'PFS AAU (mixed)
RNA 1: CACCCGUGCAAAAUUGCAGGGGUCUAAAACCUUCUCCAAAUUGUUUCAUCCU
RNA 2: GGGAAUGGAUCCACAUCUACGAAUUCGAAAGGAUGAAACAAUUUGGAGAAGAAUAGAUCGGAAGAGCACACGU
B19: target 2 MT 5'PFS UUG 3'PFS CUA (mixed)
RNA 1: CACCCGUGCAAAAUUGCAGGGGUCUAAAACCUUCUCCAAAUUGUUUCAUCCU
RNA 2: GGGAAUGGAUCCACAUCUACGAAUUCUUGAGGAUGAAACAAUUUGGAGAAGCUAAGAUCGGAAGAGCACACGU
B20: target 2 MT 5'PFS CGC 3'PFS UUC (mixed)
RNA 1: CACCCGUGCAAAAUUGCAGGGGUCUAAAACCUUCUCCAAAUUGUUUCAUCCU
RNA 2: GGGAAUGGAUCCACAUCUACGAAUUCCGCAGGAUGAAACAAUUUGGAGAAGUUCAGAUCGGAAGAGCACACGU
B21: target 2 MT 5'PFS CGC 3'PFS CGA (mixed)
RNA 1: CACCCGUGCAAAAUUGCAGGGGUCUAAAACCUUCUCCAAAUUGUUUCAUCCU
RNA 2: GGGAAUGGAUCCACAUCUACGAAUUCCGCAGGAUGAAACAAUUUGGAGAAGCGAAGAUCGGAAGAGCACACGU
B22: target 2 MT 5'PFS GAA 3'PFS AAC (mixed)
RNA 1: CACCCGUGCAAAAUUGCAGGGGUCUAAAACCUUCUCCAAAUUGUUUCAUCCU
RNA 2: GGGAAUGGAUCCACAUCUACGAAUUCGAAAGGAUGAAACAAUUUGGAGAAGAACAGAUCGGAAGAGCACACGU
B23: target 2 MT 5'PFS CGC 3'PFS CGC (mixed)
RNA 1: CACCCGUGCAAAAUUGCAGGGGUCUAAAACCUUCUCCAAAUUGUUUCAUCCU
RNA 2: GGGAAUGGAUCCACAUCUACGAAUUCCGCAGGAUGAAACAAUUUGGAGAAGCGCAGAUCGGAAGAGCACACGU
B24: target 2 MT 5'PFS GAA 3'PFS AAG (mixed)
RNA 1: CACCCGUGCAAAAUUGCAGGGGUCUAAAACCUUCUCCAAAUUGUUUCAUCCU
RNA 2: GGGAAUGGAUCCACAUCUACGAAUUCGAAAGGAUGAAACAAUUUGGAGAAGAAGAGAUCGGAAGAGCACACGU
B25: target 1 insG 3' of 10,insA 3' of 3 (mixed)
RNA 1: CACCCGUGCAAAAAUGCAGGGGUCUAAAACUGAGCGGAUAACCUCUCUAUGG
RNA 2: GGGAAUGGAUCCACAUCUACGAAUUCGUACCAUAGAGAGGUUGAUCCGCUACACCGAGAUCGGAAGAGCACACGU
B26: target 1 insC 3' of 19,insG 3' of 4 (mixed)
RNA 1: CACCCGUGCAAAAAUGCAGGGGUCUAAAACUGAGCGGAUAACCUCUCUAUGG
RNA 2: GGGAAUGGAUCCACAUCUACGAAUUCGUACCAUCAGAGAGGUUAUCCGCGUCACCGAGAUCGGAAGAGCACACGU
B27: target 1 insA 3' of 21,insG 3' of 9 (mixed)
RNA 1: CACCCGUGCAAAAAUGCAGGGGUCUAAAACUGAGCGGAUAACCUCUCUAUGG
RNA 2: GGGAAUGGAUCCACAUCUACGAAUUCGUACCAAUAGAGAGGUUAGUCCGCUCACCGAGAUCGGAAGAGCACACGU

The data set concerns the target T1, EsCas13d, nuclease-dead. As to the kind of experiment: crRNA (strand 1, pre-loaded); Mg2+; 40 mM Tris-HCl pH 7.5, 150 mM NaCl, 6 mM MgCl2, 1 mM DTT, 0.1% Tween-20, 0.2 mg/ml BSA; 25 C; 10 min per concentration, then washed. Conditions: tags: His6-TwinStrep-SUMO cleaved; N-terminal SNAP kept (SNAP-Surface 488); label: 3' end held by stalled T7 RNA polymerase.
For orientation: Kd means the concentration at which binding is half-saturated. Low values mean a tighter complex, high ones a looser complex. B1 returned a dissociation constant Kd of 3.5 ± 0.4 nM.
With B2, the affinity, expressed as Kd, was 20 ± 6 nM.
Under B3 stands 5.7 ± 1.1 nM; under B4, 7.3 ± 1.2 nM.
Next, B5: 4.1 ± 0.6 nM.
Under B6 stands 14 ± 2.1 nM; under B7, 4.6 ± 0.6 nM; under B8, 5.7 ± 0.7 nM.
For the molecule B9, the Kd was 5.6 ± 0.6 nM.
Next, B10: 9.6 ± 2.4 nM.
Molecule B11 registered a Kd of 6.3 ± 1.6 nM.
Next, B12: 13.1 ± 3.1 nM; B13: 9 ± 1.1 nM.
With B14, the equilibrium dissociation constant (Kd) was found to be 30 ± 8 nM.
The molecule B15 yielded a Kd of 7.4 ± 1.2 nM.
The molecule B16 returned a Kd of 13.8 ± 1.2 nM.
Molecule B17 registered a Kd of 16 ± 4 nM.
In turn, B18 displayed a Kd of 16 ± 7 nM.
Under B19 stands 14.9 ± 1.7 nM.
Next, B20: 12.1 ± 1.9 nM; B21: 6.7 ± 2.1 nM; B22: 11 ± 1.6 nM.
Next, B23: 4.1 ± 0.4 nM.
With B24, binding was put at a Kd of 8.2 ± 2.1 nM.
Under B25 stands 45 ± 6 nM; under B26, 21.5 ± 1.3 nM; under B27, 46 ± 6 nM.

For the origin of these results see article PMC10786891, “Massively parallel profiling of RNA-targeting CRISPR-Cas13d”.
